In paper doi:10.1101/060434 (bioRxiv, 2016):

Target: the molecule itself
Assay: electron microscopy

B1: hepatitis E virus-like particle (HEV-LP) of the HEV ORF2 capsid protein, amino acids 368-606 (p239) (domain or fragment, UniProt P33426 368-606, looked up)
chain: IALTLFNLADTLLGGLPTELISSAGGQLFYSRPVVSANGEPTVKLYTSVENAQQDKGIAIPHDIDLGESRVVIQDYDNQHEQDRPTPSPAPSRPFSVLRANDVLWLSLTAAEYDQSTYGSSTGPVYVSDSVTLVNVATGAQAVARSLDWTKVTLDGRPLSTIQQYSKTFFVLPLRGKLSFWEAGTTKAGYPYNYNTTASDQLLVENAAGHRVAISTYTTSLGAGPVSISAVAVLAPHSV
B1: binds.
